Source: publication PMC3677924, “Biochemical and Functional Analysis of Drosophila-Sciara Chimeric Sex-Lethal Proteins”

T1: SXM (GST-SXL Drosophila) (Drosophila melanogaster, UniProt P19339 1-354)
T1 sequence: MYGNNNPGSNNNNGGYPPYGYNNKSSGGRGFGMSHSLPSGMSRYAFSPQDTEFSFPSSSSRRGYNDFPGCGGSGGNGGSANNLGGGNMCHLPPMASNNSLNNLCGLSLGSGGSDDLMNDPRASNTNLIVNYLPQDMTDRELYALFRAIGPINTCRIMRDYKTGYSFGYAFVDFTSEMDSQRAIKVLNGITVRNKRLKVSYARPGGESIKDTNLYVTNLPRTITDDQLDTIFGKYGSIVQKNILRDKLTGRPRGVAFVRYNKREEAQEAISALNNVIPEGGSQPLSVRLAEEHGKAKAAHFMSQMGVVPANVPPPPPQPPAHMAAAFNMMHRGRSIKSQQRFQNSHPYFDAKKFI

T2: SXS (GST-SXL Sciara) (Sciara ocellaris, UniProt Q86QM9 1-287)
T2 sequence: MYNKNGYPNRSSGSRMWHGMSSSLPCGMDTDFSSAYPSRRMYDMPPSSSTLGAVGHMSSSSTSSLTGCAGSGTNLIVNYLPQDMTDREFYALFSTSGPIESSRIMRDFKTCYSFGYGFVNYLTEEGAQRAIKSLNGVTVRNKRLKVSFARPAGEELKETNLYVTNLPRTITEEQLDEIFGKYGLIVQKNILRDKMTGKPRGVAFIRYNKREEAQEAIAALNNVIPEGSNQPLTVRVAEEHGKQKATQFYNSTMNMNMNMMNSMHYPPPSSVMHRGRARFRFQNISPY


Legend:
Conditions in all cases: protein: recombinant; tags: GST; label: fluorescein (RNA labelling mix)
SXM (GST-SXL Drosophila) [1] = target: T1, SXM (GST-SXL Drosophila); assay: EMSA; apparent Kd, Hill fit; error 95% CI; 20 mM Hepes pH 8.0, 0.1 M KCl, 0.5 mM EDTA, 1 mM DTT, 0.05% NP40, 20% glycerol, 3 µg yeast tRNA; 5 min on ice, then 10 min at room temperature with RNA; 5% native PAGE, 0.25x TBE
SXS (GST-SXL Sciara) = target: T2, SXS (GST-SXL Sciara); assay: EMSA; Hill n=1; error 95% CI; 20 mM Hepes pH 8.0, 0.1 M KCl, 0.5 mM EDTA, 1 mM DTT, 0.05% NP40, 20% glycerol, 3 µg yeast tRNA; 5 min on ice, then 10 min at room temperature with RNA; 5% native PAGE, 0.25x TBE
SXM (GST-SXL Drosophila) [2] = target: T1, SXM (GST-SXL Drosophila); assay: EMSA; cooperative, Hill n>2; error 95% CI; 20 mM Hepes pH 8.0, 0.1 M KCl, 0.5 mM EDTA, 1 mM DTT, 0.05% NP40, 20% glycerol, 3 µg yeast tRNA; 5 min on ice, then 10 min at room temperature with RNA; 5% native PAGE, 0.25x TBE

| Binder | Kd (SXM (GST-SXL Drosophila) [1]) [nM] | Kd (SXS (GST-SXL Sciara)) [nM] | Kd (SXM (GST-SXL Drosophila) [2]) [nM] |
| --- | --- | --- | --- |
| ACAUAUUUUUUUUCACAGC (ssRNA) [single poly(U) SXL site] | 150000 ± 20000 | – | – |
| CAUGAUUAUUUUUUUUUAUUUUUUUUCGGUGA (ssRNA) [double poly(U) SXL site] | – | 300 ± 200 | 500 ± 300 |
